From the Human Domainome abundance scans (Beltran et al. 2025)
± gives the uncertainty stated by the source.

B1: Protein C-ets-1, residues 55 to 135; numbered along this chain, P14921 (parent)
chain: GFTKEQQRLGIPKDPRQWTETHVRDWVMWAVNEFSLKGVDFQKFCMNGAALCALGKDCFLELAPDFVGDILWEHLEILQKE
B2: 3'-5' exoribonuclease 1, residues 65 to 114; numbered along this chain, Q8IV48 (parent)
chain: VYKEIAITNGCINRMSKEELRAKLSEFKLETRGVKDVLKKRLKNYYKKQK

Variants of: B1
Experiment: abundance fitness (aPCA) (normalised: wild type 0, dead -1); higher = more abundant; growth selection in yeast, the domain comes from the species named
Details: Homo sapiens

Variant	abundance fitness
GATKEQQRLGIPKDPRQWTETHVRDWVMWAVNEFSLKGVDFQKFCMNGAALCALGKDCFLELAPDFVGDILWEHLEILQKE [F2A]	-0.24 ± 0.057
GCTKEQQRLGIPKDPRQWTETHVRDWVMWAVNEFSLKGVDFQKFCMNGAALCALGKDCFLELAPDFVGDILWEHLEILQKE [F2C]	-0.408 ± 0.08
EFTKEQQRLGIPKDPRQWTETHVRDWVMWAVNEFSLKGVDFQKFCMNGAALCALGKDCFLELAPDFVGDILWEHLEILQKE [G1E]	-0.042 ± 0.068
WFTKEQQRLGIPKDPRQWTETHVRDWVMWAVNEFSLKGVDFQKFCMNGAALCALGKDCFLELAPDFVGDILWEHLEILQKE [G1W]	-0.248 ± 0.083
NFTKEQQRLGIPKDPRQWTETHVRDWVMWAVNEFSLKGVDFQKFCMNGAALCALGKDCFLELAPDFVGDILWEHLEILQKE [G1N]	0.143 ± 0.27
VFTKEQQRLGIPKDPRQWTETHVRDWVMWAVNEFSLKGVDFQKFCMNGAALCALGKDCFLELAPDFVGDILWEHLEILQKE [G1V]	-0.108 ± 0.055
YFTKEQQRLGIPKDPRQWTETHVRDWVMWAVNEFSLKGVDFQKFCMNGAALCALGKDCFLELAPDFVGDILWEHLEILQKE [G1Y]	-0.114 ± 0.2
AFTKEQQRLGIPKDPRQWTETHVRDWVMWAVNEFSLKGVDFQKFCMNGAALCALGKDCFLELAPDFVGDILWEHLEILQKE [G1A]	-0.091 ± 0.076
KFTKEQQRLGIPKDPRQWTETHVRDWVMWAVNEFSLKGVDFQKFCMNGAALCALGKDCFLELAPDFVGDILWEHLEILQKE [G1K]	0.049 ± 0.24
LFTKEQQRLGIPKDPRQWTETHVRDWVMWAVNEFSLKGVDFQKFCMNGAALCALGKDCFLELAPDFVGDILWEHLEILQKE [G1L]	-0.157 ± 0.092
RFTKEQQRLGIPKDPRQWTETHVRDWVMWAVNEFSLKGVDFQKFCMNGAALCALGKDCFLELAPDFVGDILWEHLEILQKE [G1R]	-0.191 ± 0.067
DFTKEQQRLGIPKDPRQWTETHVRDWVMWAVNEFSLKGVDFQKFCMNGAALCALGKDCFLELAPDFVGDILWEHLEILQKE [G1D]	0.074 ± 0.062
MFTKEQQRLGIPKDPRQWTETHVRDWVMWAVNEFSLKGVDFQKFCMNGAALCALGKDCFLELAPDFVGDILWEHLEILQKE [G1M]	-0.186 ± 0.16
SFTKEQQRLGIPKDPRQWTETHVRDWVMWAVNEFSLKGVDFQKFCMNGAALCALGKDCFLELAPDFVGDILWEHLEILQKE [G1S]	-0.039 ± 0.065
CFTKEQQRLGIPKDPRQWTETHVRDWVMWAVNEFSLKGVDFQKFCMNGAALCALGKDCFLELAPDFVGDILWEHLEILQKE [G1C]	-0.21 ± 0.11
IFTKEQQRLGIPKDPRQWTETHVRDWVMWAVNEFSLKGVDFQKFCMNGAALCALGKDCFLELAPDFVGDILWEHLEILQKE [G1I]	-0.077 ± 0.16
TFTKEQQRLGIPKDPRQWTETHVRDWVMWAVNEFSLKGVDFQKFCMNGAALCALGKDCFLELAPDFVGDILWEHLEILQKE [G1T]	-0.262 ± 0.17

Variants of: B2
Experiment: as above
Details: Homo sapiens

Variant	abundance fitness
VYKEIAITNGCINRMSKEELRAKLSEFKLETRGVKDVLKKRLKNYYKKKK [Q49K]	-0.083 ± 0.055
VYKEIAITNGCINRMSKEELRAKLSEFKLETRGVKDVLKKRLKNYYKKVK [Q49V]	-0.182 ± 0.039
VYKEIAITNGCINRMSKEELRAKLSEFKLETRGVKDVLKKRLKNYYKKNK [Q49N]	-0.099 ± 0.077
VYKEIAITNGCINRMSKEELRAKLSEFKLETRGVKDVLKKRLKNYYKKMK [Q49M]	-0.04 ± 0.068
VYKEIAITNGCINRMSKEELRAKLSEFKLETRGVKDVLKKRLKNYYKKCK [Q49C]	-0.154 ± 0.05
VYKEIAITNGCINRMSKEELRAKLSEFKLETRGVKDVLKKRLKNYYKKSK [Q49S]	-0.19 ± 0.04
VYKEIAITNGCINRMSKEELRAKLSEFKLETRGVKDVLKKRLKNYYKKEK [Q49E]	-0.192 ± 0.055
VYKEIAITNGCINRMSKEELRAKLSEFKLETRGVKDVLKKRLKNYYKKDK [Q49D]	-0.353 ± 0.061
VYKEIAITNGCINRMSKEELRAKLSEFKLETRGVKDVLKKRLKNYYKKYK [Q49Y]	-0.065 ± 0.068
VYKEIAITNGCINRMSKEELRAKLSEFKLETRGVKDVLKKRLKNYYKKTK [Q49T]	-0.064 ± 0.06
VYKEIAITNGCINRMSKEELRAKLSEFKLETRGVKDVLKKRLKNYYKKGK [Q49G]	-0.306 ± 0.035
VYKEIAITNGCINRMSKEELRAKLSEFKLETRGVKDVLKKRLKNYYKKWK [Q49W]	-0.206 ± 0.041
VYKEIAITNGCINRMSKEELRAKLSEFKLETRGVKDVLKKRLKNYYKKFK [Q49F]	-0.208 ± 0.076
VYKEIAITNGCINRMSKEELRAKLSEFKLETRGVKDVLKKRLKNYYKKHK [Q49H]	-0.109 ± 0.032
VYKEIAITNGCINRMSKEELRAKLSEFKLETRGVKDVLKKRLKNYYKKAK [Q49A]	-0.164 ± 0.04
VYKEIAITNGCINRMSKEELRAKLSEFKLETRGVKDVLKKRLKNYYKKIK [Q49I]	-0.074 ± 0.072
VYKEIAITNGCINRMSKEELRAKLSEFKLETRGVKDVLKKRLKNYYKKLK [Q49L]	-0.099 ± 0.039
VYKEIAITNGCINRMSKEELRAKLSEFKLETRGVKDVLKKRLKNYYKKRK [Q49R]	-0.221 ± 0.032
VYKEIAITNGCINRMSKEELRAKLSEFKLETRGVKDVLKKRLKNYYKGQK [K48G]	-0.25 ± 0.035
VYKEIAITNGCINRMSKEELRAKLSEFKLETRGVKDVLKKRLKNYYKAQK [K48A]	-0.187 ± 0.041
VYKEIAITNGCINRMSKEELRAKLSEFKLETRGVKDVLKKRLKNYYKDQK [K48D]	-0.329 ± 0.059
VYKEIAITNGCINRMSKEELRAKLSEFKLETRGVKDVLKKRLKNYYKVQK [K48V]	-0.432 ± 0.038
VYKEIAITNGCINRMSKEELRAKLSEFKLETRGVKDVLKKRLKNYYKLQK [K48L]	-0.264 ± 0.036
VYKEIAITNGCINRMSKEELRAKLSEFKLETRGVKDVLKKRLKNYYKRQK [K48R]	-0.072 ± 0.036
VYKEIAITNGCINRMSKEELRAKLSEFKLETRGVKDVLKKRLKNYYKMQK [K48M]	-0.22 ± 0.057
VYKEIAITNGCINRMSKEELRAKLSEFKLETRGVKDVLKKRLKNYYKIQK [K48I]	-0.611 ± 0.085
VYKEIAITNGCINRMSKEELRAKLSEFKLETRGVKDVLKKRLKNYYKPQK [K48P]	-0.87 ± 0.061
VYKEIAITNGCINRMSKEELRAKLSEFKLETRGVKDVLKKRLKNYYKTQK [K48T]	-0.175 ± 0.055
VYKEIAITNGCINRMSKEELRAKLSEFKLETRGVKDVLKKRLKNYYKFQK [K48F]	-0.51 ± 0.074
VYKEIAITNGCINRMSKEELRAKLSEFKLETRGVKDVLKKRLKNYYKHQK [K48H]	-0.213 ± 0.064
